Source: IntAct's records for PubMed 10364224

B1: Tyrosine-protein phosphatase non-receptor type 3 (Homo sapiens), P26045 (parent)
chain: MTSRLRALGGRINNIRTSELPKEKTRSEVICSIHFLDGVVQTFKVTKQDTGQVLLDMVHNHLGVTEKEYFGLQHDDDSVDSPRWLEASKAIRKQLKGGFPCTLHFRVRFFIPDPNTLQQEQTRHLYFLQLKMDICEGRLTCPLNSAVVLASYAVQSHFGDYNSSIHHPGYLSDSHFIPDQNEDFLTKVESLHEQHSGLKQSEAESCYINIARTLDFYGVELHSGRDLHNLDLMIGIASAGVAVYRKYICTSFYPWVNILKISFKRKKFFIHQRQKQAESREHIVAFNMLNYRSCKNLWKSCVEHHTFFQAKKLLPQEKNVLSQYWTMGSRNTKKSVNNQYCKKVIGGMVWNPAMRRSLSVEHLETKSLPSRSPPITPNWRSPRLRHEIRKPRHSSADNLANEMTYITETEDVFYTYKGSLAPQDSDSEVSQNRSPHQESLSENNPAQSYLTQKSSSSVSPSSNAPGSCSPDGVDQQLLDDFHRVTKGGSTEDASQYYCDKNDNGDSYLVLIRITPDEDGKFGFNLKGGVDQKMPLVVSRINPESPADTCIPKLNEGDQIVLINGRDISEHTHDQVVMFIKASRESHSRELALVIRRRAVRSFADFKSEDELNQLFPEAIFPMCPEGGDTLEGSMAQLKKGLESGTVLIQFEQLYRKKPGLAITFAKLPQNLDKNRYKDVLPYDTTRVLLQGNEDYINASYVNMEIPAANLVNKYIATQGPLPHTCAQFWQVVWDQKLSLIVMLTTLTERGRTKCHQYWPDPPDVMNHGGFHIQCQSEDCTIAYVSREMLVTNTQTGEEHTVTHLQYVAWPDHGVPDDSSDFLEFVNYVRSLRVDSEPVLVHCSAGIGRTGVLVTMETAMCLTERNLPIYPLDIVRKMRDQRAMMVQTSSQYKFVCEAILRVYEEGLVQMLDPS

Variants of: B1
Details: with tera_human VCP

| Variant | effect of a mutation on the interaction |
| --- | --- |
| D811A | increasing interaction |

Variants of: B1
Details: with tera_human VCP
Remark: another data set of the same source

| Variant | effect of a mutation on the interaction |
| --- | --- |
| Y676F;D811A | increasing interaction |

Variants of: B1
Details: with tera_mouse Vcp

| Variant | effect of a mutation on the interaction |
| --- | --- |
| Y676F;D811A | increasing interaction |
